Data reported in paper PMC9974998, “Structural mechanism for inhibition of PP2A-B56α and oncogenicity by CIP2A” (Nature Communications, 2023).
No end group written: not given here. *: point of attachment. Biotin = O=C1N[C@H]2[C@H](CS[C@H]2CCCCC(=O)*)N1

B1: B56α (recombinant, WT) (natural protein)
chain: not shown
notes: PP2A regulatory subunit B56α; pGEX-B56α WT; also called B56α WT; source: E. coli BL21, purified (glutathione agarose, GST removed with AcTEV); not shown: GST, N-terminal, cleaved
B2: B56α K181A/K217A/K227A (recombinant) (natural protein)
chain: not shown
notes: PP2A regulatory subunit B56α with K181A, K217A and K227A; also called B56α triple mutant
B3: B56α Y215Q (natural protein)
chain: not shown
notes: PP2A regulatory subunit B56α with Y215Q; source: purified recombinant
B4: CIP2A(1-330) as used for XL-MS (domain or fragment)
chain: not shown
notes: CIP2A, human, residues 1-330; also called CIP2A(1-330) fragment; source: E. coli BL21, purified (glutathione agarose), dialysed into PBS pH 8, 2 mM DTT, 10% glycerol
B5: GST-CIP2A(1-330) A24E (domain or fragment)
chain: not shown
notes: CIP2A, human, residues 1-330, A24E; also called A24E mutant; source: E. coli BL21, purified (glutathione agarose); not shown: GST, N-terminal, kept
B6: CIP2A peptide (aa18-40) (peptide)
peptide: Biotin-KAVKSEANATQLLRHLEVISGQK
notes: CIP2A, human, head domain residues 18-40; also called CIP2A N-terminal head peptide; CIP2A head peptide; source: synthetic peptide (Fmoc solid phase, HPLC purified, 87% purity)

How the values were obtained:
Conditions in all cases: both partners purified
[1] = molecular target: T1, CIP2A(1-560)V5 His (human, UniProt Q8TCG1 1-560); experiment: pull-down; competition: GST-BubR1(647-720), B56α and CIP2A(1-560)V5, 10 pmol each, glutathione bead pull-down, B56α on BubR1 by Western blot
T1 construct: CIP2A, human, residues 1-560; also called V5-tagged recombinant CIP2A(1-560); source: recombinant

[2] = molecular target: T2, GST-CIP2A(1-560) K8A (human, UniProt Q8TCG1 1-560, K8A); experiment: pull-down; GST pull-down on glutathione agarose; 10 pmol of each protein in 150 µL 50 mM Tris HCl pH 7.5, 150 mM NaCl, 2 mM DTT, 0.2% Igepal, 10% glycerol, 1 h 37 °C; Western blot
T2 construct: CIP2A, human, residues 1-560, K8A; also called CIP2A(1-560) K8A mutant; source: E. coli BL21, purified (glutathione agarose); not shown: GST, N-terminal, kept

[3] = molecular target: T3, CIP2A(1-560) as used for XL-MS (human, UniProt Q8TCG1 1-560); experiment: cross-linking; XL-MS: CIP2A and B56α mixed 1:2, RT 60 min, about 0.5 mg/mL; DSS 100 or 500 µM (PBS pH 8.0, 2 mM DTT, 10% glycerol, 30 min 37 °C) or PDH + DMTMM (pH 7, 45 min 37 °C); LC-MS/MS, xQuest
T3 construct: CIP2A, human, residues 1-560; source: E. coli BL21, purified (glutathione agarose), dialysed into PBS pH 8, 2 mM DTT, 10% glycerol

[4] = molecular target: T4, GST-CIP2A(1-560) (human, UniProt Q8TCG1 1-560); experiment: pull-down; GST-CIP2A incubated with the pre-assembled PP2A-B56α holoenzyme (A-B56α-PP2Ac), glutathione beads; Coomassie gel and Western blot; CIP2A also titrated against equal molar amounts of PP2A proteins
T4 construct: CIP2A, human, residues 1-560; pGEX vector, thrombin-cleavable N-terminal GST; also called GST-tagged CIP2A(1-560) WT; GST-fused CIP2A(1-560); source: E. coli BL21, purified (glutathione agarose); not shown: GST, N-terminal, kept

[5] = molecular target: T4, GST-CIP2A(1-560); experiment: pull-down; GST pull-down on glutathione agarose; 10 pmol of each protein in 150 µL 50 mM Tris HCl pH 7.5, 150 mM NaCl, 2 mM DTT, 0.2% Igepal, 10% glycerol, 1 h 37 °C; Western blot
[6] = molecular target: B1; experiment: cross-linking; XL-MS: CIP2A and B56α mixed 1:2, RT 60 min, about 0.5 mg/mL; DSS 100 or 500 µM (PBS pH 8.0, 2 mM DTT, 10% glycerol, 30 min 37 °C) or PDH + DMTMM (pH 7, 45 min 37 °C); LC-MS/MS, xQuest
[7] = molecular target: B1; experiment: pull-down; GST pull-down on glutathione agarose; 10 pmol of each protein in 150 µL 50 mM Tris HCl pH 7.5, 150 mM NaCl, 2 mM DTT, 0.2% Igepal, 10% glycerol, 1 h 37 °C; Western blot
[8] = molecular target: B1; experiment: pull-down; competition: B56α pre-incubated with CIP2A peptide (aa.18-40) 30 min 37 °C, then GST-BubR1(647-720) 1 h 37 °C, 10 pmol each, glutathione bead pull-down, Western blot

Binder: B1
- binding result [1]: binds
- binding result [2]: binds
- binding result [3]: binds
- binding result [4]: binds

Binder: B2
- binding result [5]: binds

Binder: B3
- binding result [5]: binds

Binder: B4
- binding result [6]: binds

Binder: B5
- binding result [7]: binds

Binder: B6
- binding result [8]: binds
